Six molecules from patent US20140213513A1 (Sanofi, priority 2012, published 2014) can be followed below.

*1 amine or outer side, *2 acyl side, *3 side chain or, on linkers, in order; H or OH if unused. Where no end group is shown, it is not given here. Side-chain parts run from the residue outwards. [ ]: non-standard residue; d: D form. The star is where a group is joined. γGlu = O=C(O)[C@H](CCC(=O)[*:2])N[*:1]; Stearoyl = CCCCCCCCCCCCCCCCCC(=O)*; Palmitoyl = CCCCCCCCCCCCCCCC(=O)*; Aib = CC(C)(N)C(=O)O

Holding throughout (assay): cell-based or functional assay
Assay [1] deals with human GLP-1 receptor (human, UniProt P43220 24-463).
The target of assay [2] is T1, human GIP receptor (human, UniProt P48546 22-466).
T1 sequence (looked up): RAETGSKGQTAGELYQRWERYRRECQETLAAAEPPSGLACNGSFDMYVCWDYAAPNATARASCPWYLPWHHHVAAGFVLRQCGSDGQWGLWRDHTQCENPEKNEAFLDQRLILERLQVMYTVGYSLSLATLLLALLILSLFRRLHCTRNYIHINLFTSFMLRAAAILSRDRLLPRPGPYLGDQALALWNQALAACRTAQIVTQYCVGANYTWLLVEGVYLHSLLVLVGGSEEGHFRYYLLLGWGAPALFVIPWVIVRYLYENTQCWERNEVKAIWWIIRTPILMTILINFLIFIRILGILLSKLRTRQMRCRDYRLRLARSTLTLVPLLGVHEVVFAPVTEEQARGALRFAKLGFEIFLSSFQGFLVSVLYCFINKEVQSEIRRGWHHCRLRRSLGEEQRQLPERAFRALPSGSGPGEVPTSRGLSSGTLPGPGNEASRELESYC

Assay [3] concerns the target human glucagon receptor (human, UniProt P47871 26-477).

Sequence of human glucagon receptor (P47871 26-477): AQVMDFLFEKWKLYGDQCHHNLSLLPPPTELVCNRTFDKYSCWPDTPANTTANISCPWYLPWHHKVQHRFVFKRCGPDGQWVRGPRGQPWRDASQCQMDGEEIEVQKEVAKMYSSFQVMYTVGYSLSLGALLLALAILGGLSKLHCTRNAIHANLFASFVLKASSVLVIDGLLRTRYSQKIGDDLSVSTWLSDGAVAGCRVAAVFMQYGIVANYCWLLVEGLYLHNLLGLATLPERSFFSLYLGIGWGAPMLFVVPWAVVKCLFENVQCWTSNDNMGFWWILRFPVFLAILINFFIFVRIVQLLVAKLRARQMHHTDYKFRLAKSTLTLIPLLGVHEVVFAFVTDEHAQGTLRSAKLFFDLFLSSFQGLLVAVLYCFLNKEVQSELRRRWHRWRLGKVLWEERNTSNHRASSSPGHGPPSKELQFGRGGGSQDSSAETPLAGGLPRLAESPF

B1: exendin-4 peptide analogue SEQ ID NO: 62 (peptide)
peptide: Y[Aib]EGTFTSDLSIQK([γGlu-Stearoyl])EEEAVKLFIEWLKAGGPSSGAPPPS-NH2
modifications: N-terminus assumed
SMILES: CCCCCCCCCCCCCCCCCC(=O)N[C@@H](CCC(=O)NCCCC[C@H](NC(=O)[C@H](CCC(N)=O)NC(=O)[C@@H](NC(=O)[C@H](CO)NC(=O)[C@H](CC(C)C)NC(=O)[C@H](CC(=O)O)NC(=O)[C@H](CO)NC(=O)[C@@H](NC(=O)[C@H](Cc1ccccc1)NC(=O)[C@@H](NC(=O)CNC(=O)[C@H](CCC(=O)O)NC(=O)C(C)(C)NC(=O)[C@@H](N)Cc1ccc(O)cc1)[C@@H](C)O)[C@@H](C)O)[C@@H](C)CC)C(=O)N[C@@H](CCC(=O)O)C(=O)N[C@@H](CCC(=O)O)C(=O)N[C@@H](CCC(=O)O)C(=O)N[C@@H](C)C(=O)N[C@H](C(=O)N[C@@H](CCCCN)C(=O)N[C@@H](CC(C)C)C(=O)N[C@@H](Cc1ccccc1)C(=O)N[C@H](C(=O)N[C@@H](CCC(=O)O)C(=O)N[C@@H](Cc1c[nH]c2ccccc12)C(=O)N[C@@H](CC(C)C)C(=O)N[C@@H](CCCCN)C(=O)N[C@@H](C)C(=O)NCC(=O)NCC(=O)N1CCC[C@H]1C(=O)N[C@@H](CO)C(=O)N[C@@H](CO)C(=O)NCC(=O)N[C@@H](C)C(=O)N1CCC[C@H]1C(=O)N1CCC[C@H]1C(=O)N1CCC[C@H]1C(=O)N[C@@H](CO)C(N)=O)[C@@H](C)CC)C(C)C)C(=O)O
As to B1, the “EC50 hGLP-1 R” value in assay [1] is 0.0076 nM. In assay [2], the “EC50 hGIP R” value was found to be 0.0067 nM. For the same molecule, in assay [3], the “EC50 hGLUC R” value was greater than 1000 nM.

B2: exendin-4 peptide analogue SEQ ID NO: 61 (peptide)
peptide: Y[Aib]QGTFTSDLSKQK([γGlu-Palmitoyl])DSKAAQDFIEWLKAGGPSSGAPPPS-NH2
modifications: N-terminus assumed
SMILES: CCCCCCCCCCCCCCCC(=O)N[C@@H](CCC(=O)NCCCC[C@H](NC(=O)[C@H](CCC(N)=O)NC(=O)[C@H](CCCCN)NC(=O)[C@H](CO)NC(=O)[C@H](CC(C)C)NC(=O)[C@H](CC(=O)O)NC(=O)[C@H](CO)NC(=O)[C@@H](NC(=O)[C@H](Cc1ccccc1)NC(=O)[C@@H](NC(=O)CNC(=O)[C@H](CCC(N)=O)NC(=O)C(C)(C)NC(=O)[C@@H](N)Cc1ccc(O)cc1)[C@@H](C)O)[C@@H](C)O)C(=O)N[C@@H](CC(=O)O)C(=O)N[C@@H](CO)C(=O)N[C@@H](CCCCN)C(=O)N[C@@H](C)C(=O)N[C@@H](C)C(=O)N[C@@H](CCC(N)=O)C(=O)N[C@@H](CC(=O)O)C(=O)N[C@@H](Cc1ccccc1)C(=O)N[C@H](C(=O)N[C@@H](CCC(=O)O)C(=O)N[C@@H](Cc1c[nH]c2ccccc12)C(=O)N[C@@H](CC(C)C)C(=O)N[C@@H](CCCCN)C(=O)N[C@@H](C)C(=O)NCC(=O)NCC(=O)N1CCC[C@H]1C(=O)N[C@@H](CO)C(=O)N[C@@H](CO)C(=O)NCC(=O)N[C@@H](C)C(=O)N1CCC[C@H]1C(=O)N1CCC[C@H]1C(=O)N1CCC[C@H]1C(=O)N[C@@H](CO)C(N)=O)[C@@H](C)CC)C(=O)O
For the molecule B2, the “EC50 hGLP-1 R” value in assay [1] amounted to 0.0024 nM. In assay [2], the “EC50 hGIP R” value was 0.0214 nM. In assay [3], the “EC50 hGLUC R” value was 0.0061 nM.

B3: exendin-4 peptide analogue SEQ ID NO: 64 (peptide)
peptide: Y[Aib]EGTFTSDLSIQK([γGlu-Stearoyl])EERAVRLFIEWLKAGGPSSGAPPPS-NH2
modifications: N-terminus assumed
SMILES: CCCCCCCCCCCCCCCCCC(=O)N[C@@H](CCC(=O)NCCCC[C@H](NC(=O)[C@H](CCC(N)=O)NC(=O)[C@@H](NC(=O)[C@H](CO)NC(=O)[C@H](CC(C)C)NC(=O)[C@H](CC(=O)O)NC(=O)[C@H](CO)NC(=O)[C@@H](NC(=O)[C@H](Cc1ccccc1)NC(=O)[C@@H](NC(=O)CNC(=O)[C@H](CCC(=O)O)NC(=O)C(C)(C)NC(=O)[C@@H](N)Cc1ccc(O)cc1)[C@@H](C)O)[C@@H](C)O)[C@@H](C)CC)C(=O)N[C@@H](CCC(=O)O)C(=O)N[C@@H](CCC(=O)O)C(=O)N[C@@H](CCCNC(=N)N)C(=O)N[C@@H](C)C(=O)N[C@H](C(=O)N[C@@H](CCCNC(=N)N)C(=O)N[C@@H](CC(C)C)C(=O)N[C@@H](Cc1ccccc1)C(=O)N[C@H](C(=O)N[C@@H](CCC(=O)O)C(=O)N[C@@H](Cc1c[nH]c2ccccc12)C(=O)N[C@@H](CC(C)C)C(=O)N[C@@H](CCCCN)C(=O)N[C@@H](C)C(=O)NCC(=O)NCC(=O)N1CCC[C@H]1C(=O)N[C@@H](CO)C(=O)N[C@@H](CO)C(=O)NCC(=O)N[C@@H](C)C(=O)N1CCC[C@H]1C(=O)N1CCC[C@H]1C(=O)N1CCC[C@H]1C(=O)N[C@@H](CO)C(N)=O)[C@@H](C)CC)C(C)C)C(=O)O
As to B3, in assay [1], the “EC50 hGLP-1 R” value turned out to be 0.0102 nM. In assay [2], the “EC50 hGIP R” value turned out to be 0.0096 nM. In addition, the “EC50 hGLUC R” value in assay [3] was 75.1 nM.

B4: exendin-4 peptide analogue SEQ ID NO: 11 (peptide)
peptide: Y[Aib]QGTFTSDLSIQK([γGlu-Palmitoyl])EKR[Aib]A[Aib]EFIEWLKNTGPSSGAPPPS-NH2
modifications: N-terminus assumed
SMILES: CCCCCCCCCCCCCCCC(=O)N[C@@H](CCC(=O)NCCCC[C@H](NC(=O)[C@H](CCC(N)=O)NC(=O)[C@@H](NC(=O)[C@H](CO)NC(=O)[C@H](CC(C)C)NC(=O)[C@H](CC(=O)O)NC(=O)[C@H](CO)NC(=O)[C@@H](NC(=O)[C@H](Cc1ccccc1)NC(=O)[C@@H](NC(=O)CNC(=O)[C@H](CCC(N)=O)NC(=O)C(C)(C)NC(=O)[C@@H](N)Cc1ccc(O)cc1)[C@@H](C)O)[C@@H](C)O)[C@@H](C)CC)C(=O)N[C@@H](CCC(=O)O)C(=O)N[C@@H](CCCCN)C(=O)N[C@@H](CCCNC(=N)N)C(=O)NC(C)(C)C(=O)N[C@@H](C)C(=O)NC(C)(C)C(=O)N[C@@H](CCC(=O)O)C(=O)N[C@@H](Cc1ccccc1)C(=O)N[C@H](C(=O)N[C@@H](CCC(=O)O)C(=O)N[C@@H](Cc1c[nH]c2ccccc12)C(=O)N[C@@H](CC(C)C)C(=O)N[C@@H](CCCCN)C(=O)N[C@@H](CC(N)=O)C(=O)N[C@H](C(=O)NCC(=O)N1CCC[C@H]1C(=O)N[C@@H](CO)C(=O)N[C@@H](CO)C(=O)NCC(=O)N[C@@H](C)C(=O)N1CCC[C@H]1C(=O)N1CCC[C@H]1C(=O)N1CCC[C@H]1C(=O)N[C@@H](CO)C(N)=O)[C@@H](C)O)[C@@H](C)CC)C(=O)O
With B4, the “EC50 hGLP-1 R” value in assay [1] worked out at 0.0038 nM. Moreover, the “EC50 hGIP R” value in assay [2] was found to be 0.0144 nM. In addition, the “EC50 hGLUC R” value in assay [3] amounted to 0.0669 nM.

B5: exendin-4 peptide analogue SEQ ID NO: 63 (peptide)
peptide: Y[Aib]EGTFTSDLSKQK([γGlu-Palmitoyl])DKRAAQDFIEWLKAGGPSSGAPPPS-NH2
modifications: N-terminus assumed
SMILES: CCCCCCCCCCCCCCCC(=O)N[C@@H](CCC(=O)NCCCC[C@H](NC(=O)[C@H](CCC(N)=O)NC(=O)[C@H](CCCCN)NC(=O)[C@H](CO)NC(=O)[C@H](CC(C)C)NC(=O)[C@H](CC(=O)O)NC(=O)[C@H](CO)NC(=O)[C@@H](NC(=O)[C@H](Cc1ccccc1)NC(=O)[C@@H](NC(=O)CNC(=O)[C@H](CCC(=O)O)NC(=O)C(C)(C)NC(=O)[C@@H](N)Cc1ccc(O)cc1)[C@@H](C)O)[C@@H](C)O)C(=O)N[C@@H](CC(=O)O)C(=O)N[C@@H](CCCCN)C(=O)N[C@@H](CCCNC(=N)N)C(=O)N[C@@H](C)C(=O)N[C@@H](C)C(=O)N[C@@H](CCC(N)=O)C(=O)N[C@@H](CC(=O)O)C(=O)N[C@@H](Cc1ccccc1)C(=O)N[C@H](C(=O)N[C@@H](CCC(=O)O)C(=O)N[C@@H](Cc1c[nH]c2ccccc12)C(=O)N[C@@H](CC(C)C)C(=O)N[C@@H](CCCCN)C(=O)N[C@@H](C)C(=O)NCC(=O)NCC(=O)N1CCC[C@H]1C(=O)N[C@@H](CO)C(=O)N[C@@H](CO)C(=O)NCC(=O)N[C@@H](C)C(=O)N1CCC[C@H]1C(=O)N1CCC[C@H]1C(=O)N1CCC[C@H]1C(=O)N[C@@H](CO)C(N)=O)[C@@H](C)CC)C(=O)O
For B5, the “EC50 hGLP-1 R” value in assay [1] is 0.006 nM. Moreover, in assay [2], the “EC50 hGIP R” value was 0.0119 nM. In addition, the “EC50 hGLUC R” value in assay [3] is 1.67 nM.

B6: exendin-4 peptide analogue SEQ ID NO: 66 (peptide)
peptide: Y[Aib]QGTFTSDLSKQK([γGlu-Palmitoyl])DSRAAQDFIEWLKAGGPSSGAPPPS-NH2
modifications: N-terminus assumed
SMILES: CCCCCCCCCCCCCCCC(=O)N[C@@H](CCC(=O)NCCCC[C@H](NC(=O)[C@H](CCC(N)=O)NC(=O)[C@H](CCCCN)NC(=O)[C@H](CO)NC(=O)[C@H](CC(C)C)NC(=O)[C@H](CC(=O)O)NC(=O)[C@H](CO)NC(=O)[C@@H](NC(=O)[C@H](Cc1ccccc1)NC(=O)[C@@H](NC(=O)CNC(=O)[C@H](CCC(N)=O)NC(=O)C(C)(C)NC(=O)[C@@H](N)Cc1ccc(O)cc1)[C@@H](C)O)[C@@H](C)O)C(=O)N[C@@H](CC(=O)O)C(=O)N[C@@H](CO)C(=O)N[C@@H](CCCNC(=N)N)C(=O)N[C@@H](C)C(=O)N[C@@H](C)C(=O)N[C@@H](CCC(N)=O)C(=O)N[C@@H](CC(=O)O)C(=O)N[C@@H](Cc1ccccc1)C(=O)N[C@H](C(=O)N[C@@H](CCC(=O)O)C(=O)N[C@@H](Cc1c[nH]c2ccccc12)C(=O)N[C@@H](CC(C)C)C(=O)N[C@@H](CCCCN)C(=O)N[C@@H](C)C(=O)NCC(=O)NCC(=O)N1CCC[C@H]1C(=O)N[C@@H](CO)C(=O)N[C@@H](CO)C(=O)NCC(=O)N[C@@H](C)C(=O)N1CCC[C@H]1C(=O)N1CCC[C@H]1C(=O)N1CCC[C@H]1C(=O)N[C@@H](CO)C(N)=O)[C@@H](C)CC)C(=O)O
For the molecule B6, the “EC50 hGLP-1 R” value in assay [1] was 0.0036 nM. Further, the “EC50 hGIP R” value in assay [2] was 0.0826 nM. In addition, the “EC50 hGLUC R” value in assay [3] was determined as 0.0052 nM.
